The record followed here is article PMC8339232.

This assay deals with PknF catalytic domain (cPknF) catalytic domain, 1-299 (UniProt P9WI75). The conditions noted are these: reference: non-phosphorylated cPknF; sites T173,T175.

With “PknF catalytic domain (cPknF) catalytic domain, 1-299 (from UniProt P9WI75)”, the “other: volume fraction of dimers” value is given as “stronger; reference 44”.
